Results taken from patent publication US20210292392A1 (TSB THERAPEUTICS BEIJING, published 2021).
Substitutions are numbered along the chain they refer to. In names and notes the source's numbering stands. Like-named read-outs stand apart in the source and are kept apart here.

Assays:
Assay in all cases: cell-based or functional assay
[1] = target: T1, full length spike (S) protein of SARS-CoV-2 (SARS-CoV-2, UniProt P0DTC2 14-1273)
[2] = target: T1, full length spike (S) protein of …; remark: listed apart in the source
[3] = target: T1, full length spike (S) protein of …; remark: listed apart in the source
[4] = target: full length S protein of SARS-CoV-2 (on pseudovirus) (SARS-CoV-2, UniProt P0DTC2 14-1273)

B1: P2C-1C10 (antibody, V domains shown)
VH: QVQLVQSGAEVKKPGSSVKVSCKASGGTFSSYAIIWVRQAPGQGLEWMGGIIPIFGTANYAQKFQGRVTITADESTSTAYMELSSLRSEDTAVYYCARVVTGYYFDYWGQGTLVTVSS
VL: EIVLTQSPATLSLSPGERATLSCRASQSVSSYLAWYQQKPGQAPRLLIYDASNRATGIPARFSGSGSGTDFTLTISSLEPEDFAVYYCQQRSNWPSFGQGTKLEIKR
- IC50, pseudovirus neutralization [1]: 2.62 mg/L
- Neutralizing activity (%) Mean at 0.0228624 µg/ml [1]: -2.34%
- Neutralizing activity (%) Mean at 0.0685871 µg/ml [1]: 7.78%
- Neutralizing activity (%) Mean at 0.2057613 µg/ml [1]: 13.4%
- Neutralizing activity (%) Mean at 0.6172839 µg/ml [1]: 5.92%
- Neutralizing activity (%) Mean at 1.851852 µg/ml [1]: 38.5%
- Neutralizing activity (%) Mean at 5.555555 µg/ml [1]: 88.9%
- Neutralizing activity (%) Mean at 16.66667 µg/ml [1]: 99.9%
- Neutralizing activity (%) Mean at 50 µg/ml [1]: 100%

B2: P5A-1C8 (antibody, human IgG1, kappa, V domains shown)
VH: QVQLVQSGAEVKKPGASVKVSCKASGYTFTSYYMHWVRQAPGQGLEWMGIINPSGGSTSYAQKFQGRVTMTRDTSTSTVYMELSSLRSEDTAVYYCARSARDYYDSSGYYYRAEYFQHWGQGTLVTVSS
VL: DIQMTQSPSSLSASVGDRVTITCQASQDISNYLNWYQQKPGKAPKLLIYDASNLETGVPSRFSGSGSGTDFTFTISSLQPEDIATYYCQQYDNLPSITFGQGTRLEIKR
- IC50, pseudovirus neutralization [2]: 0.434 mg/L

B3: P2C-1C8 (antibody, V domains shown)
VH: QVQLVESGGGVVQPGRSLRLSCAASGFTFRSYGMHWVRQAPGKGLEWVAVIWYDGSNKYYADSVKGRFTISRDNSKNTLYLQMNSLRAEDTAVYYCARDIEIVVVNIDYWGQGTLVTVSS
VL: not shown
- Neutralizing activity (%) Mean at 0.0228624 µg/ml [1]: -7.15%
- Neutralizing activity (%) Mean at 0.0685871 µg/ml [1]: 2.8%
- Neutralizing activity (%) Mean at 0.2057613 µg/ml [1]: 4.92%
- Neutralizing activity (%) Mean at 0.6172839 µg/ml [1]: 10.1%
- Neutralizing activity (%) Mean at 1.851852 µg/ml [1]: 8.39%
- Neutralizing activity (%) Mean at 5.555555 µg/ml [1]: 23.3%
- Neutralizing activity (%) Mean at 16.66667 µg/ml [1]: 34.7%
- Neutralizing activity (%) Mean at 50 µg/ml [1]: 59.2%

B4: P5A-3A6 (antibody, human IgG1, lambda, V domains shown)
VH: EVQLVESGGGLVQPGRSLRLSCAASGFTFDDYAMHWVRQAPGKGLEWVSGISWNSGTIGYADSVKGRFIISRDNAKNSLYLQMNSLRAEDTALYYCAGGGTMVRGVIAGGGTHPVDDYYGMDVWGQGTTVTVSS
VL: QSALTQPASVSGSPGQSITISCTGTSSDVGGYNYVSWYQQHPGKAPKLMIYDVSNRPSGVSNRFSGSKSGNTASLTISGLQAEDEADYYCSSYTSSSTVVFGGGTKLTVLG
- IC50, Pesudovirus neutralization [3]: 0.234 mg/L
- IC80, Pesudovirus neutralization [3]: 1.27 mg/L
- IC90, Pesudovirus neutralization [3]: 2.77 mg/L

B5: P5A-2G9 (antibody, human IgG1, lambda, V domains shown)
VH: QVQLVESGGGVVQPGRSLRLSCAASGFTFSSYGMHWVRQAPGKGLEWVAVIWYDGSNKYYADSVKGRFTISRDNSKNTLYLQMNSLRAEDTAVYYCARWFHTGGYFDYWGQGTLVTVSS
VL: QPVLTQPPSSSASPGESARLTCTLPSDINVSSYNIYWYQQKPGSPPRYLLYYYSDSDKGQGSGVPSRFSGSKDASANTGILLISGLQSEDEADYYCMIWPSNALYVFGTGTKVTVLG
- IC50, Pesudovirus neutralization [3]: 0.0158 mg/L
- IC80, Pesudovirus neutralization [3]: 0.147 mg/L
- IC90, Pesudovirus neutralization [3]: 0.498 mg/L

B6: P5A-2G9 (antibody, human IgG1, lambda, V domains shown)
VH: B5 VH
VL: B5 VL
- Pseudovirus IC50 [4]: 0.0158 mg/L
- Pseudovirus IC80 [4]: 0.147 mg/L

B7: P5A-1B6 (antibody, human IgG1, kappa, V domains shown)
VH: QVQLVESGGGVVQPGRSLRLSCAASGFTFSSYAMHWVRQAPGKGLEWVAVISYDGSNKYYADSVKGRFTISRDNSKNTLYLQMNSLRAEDTAVYYCARDGQAITMVQGVIGPPFDYWGQGTLVTVSS
VL: not shown
- IC90, Pesudovirus neutralization [3]: 4.2 mg/L

B8: P5A-1D2 (antibody, human IgG1, lambda, V domains shown)
VH: EVQLVESGGGLIQPGGSLRLSCAASGFIVSSNYMSWVRQAPGKGLEWVSIIYSGGSTYYADSVKGRFTISRDNSNNTLYLQMNSLRAEDTAVYYCARALQVGATSDYFDYWGQGTLVTVSS
VL: QSVLTQPPSVSGAPGQRVTISCTGSSSNIGAGYDVHWYQQLPGTAPKLLIYGNSNRPSGVPDRFSGSKSGTSASLAITGLQAEDETDYYCQSCDSSLSVVVFGGGTKLTVLG
- IC50, pseudovirus neutralization [2]: 0.035 mg/L

B9: P5A-1D2 (antibody, human IgG1, lambda, V domains shown)
VH: B8 VH
VL: B8 VL
- Pseudovirus IC50 [4]: 0.0186 mg/L
- Pseudovirus IC80 [4]: 0.102 mg/L

B10: P5A-1B8 (antibody, human IgG1, kappa, V domains shown)
VH: EVQLVESGGGLIQPGGSLRLSCAASGFTVSSNYMSWVRQAPGKGLEWVSVIYPGGSTFYADSVKGRFTISRDNSKNTLYLQMNSLRAEDTAVYYCARETLAFDYWGQGTLVTVSS
VL: DIQLTQSPSFLSASVGDRVTITCRASQGISSYLAWYQQKPGKAPKLLIYAASTLQSGVPSRFSGSGSGTEFTLTISSLQPEDFATYYCQQLNSYPPAFGGGTKVEIKR
- IC80, Pesudovirus neutralization [3]: 0.0509 mg/L
- IC90, Pesudovirus neutralization [3]: 0.137 mg/L

B11: P5A-3C8 (antibody, human IgG1, kappa, V domains shown)
VH: EVQLVESGGGLIQPGGSLRLSCAASGFTVSSNYMSWVRQAPGKGLEWVSFIYSGGSTYYADSVKGRFTISRDNSKNTLYLQMNSLRAEDTAVYYCARDLQEHGMDVWGQGTTVTVSS
VL: DIQLTQSPSSLSASVGDRVTITCRASQGISSYLAWYQQKPGKAPKLLIYAASTLQSGVPSRFSGSGSGTDFTLTISSLQPEDFATYYCQHLNSYPPGYTFGQGTKLEIKR
- IC50, pseudovirus neutralization [2]: 0.024 mg/L

B12: P22A-1D1 (antibody, human IgG1, kappa, V domains shown)
VH: B11 VH with F50V, L99R, Q100D, E101Y, H102Y
VL: DIQLTQSPSFLSASVGDRVTITCRASQGISSYLAWYQQKPGKAPKLLIYAASTLQSGVPSRFSGSGSGTEFTLTISSLQPEDFATYYCLHLNSYRTFGLGTKVEIKR
- IC90, Pesudovirus neutralization [3]: 0.399 mg/L

B13: P5A-3A1 (antibody, V domains shown)
VH: B11 VH with F50V, L99Y, Q100G, E101D, H102F, G103Y, M104F, V106Y, T112L
VL: not shown
- IC90, Pesudovirus neutralization [3]: 7.2 mg/L

B14: P5A-1D1 (antibody, V domains shown)
VH: B11 VH with F27L, F50V, Q100Y, E101Y, H102Y, S117T
VL: B12 VL with E70D, L89Q, H90Q, R95P, L99Q, K102R, V103L
- IC90, Pesudovirus neutralization [3]: 0.232 mg/L

B15: P4A-1H6 (antibody, human IgG1, kappa, V domains shown)
VH: QVQLVESGGGVVQPGRSLRLSCAASGFTFSSYGMHWVRQSPGKGLEWVAVISDDGSNQYYADSVKGRFTISRDNSKNTLYLQMNSLRVEDTAVYYCAKRGGYCSTTSCLLRWVYFDFWGQGTLATVSS
VL: DIQMTQSPSSLSASVGDRVTITCRASQSISSYLHWYQQKPGKAPNLLIYAASSLQSGVPSRFSGSGSGTDFTLTISSLQPEDFATYYCQQSYNTPTFGPGTKVDIKR
- IC90, Pesudovirus neutralization [3]: 2.21 mg/L

B16: P5A-3C12 (antibody, human IgG1, kappa, V domains shown)
VH: QITLKESGPTLVKPTQTLTLTCTFSGFSLSTSGVGVGWIRQPPGKALEWLALIYWDDDKRYSPSLKSRLTITKDTSKNQVVLTMTNMDPVDTATYYCAHSLFLTVGYSSSWSPFDYWGQGTLVTVSS
VL: not shown
- IC90, Pesudovirus neutralization [3]: 0.955 mg/L

B17: P2C-1D5 (antibody, V domains shown)
VH: not shown
VL: SYVLTQPPSVSVAPGKTARITCGGNNIGSKSVHWYQQKPGQAPVLVIYYDSDRPSGIPERFSGSNSGNTATLTISRVEAGDEADYYCQVWDSSSDHHVFGTGTKVTVLG
- IC50, pseudovirus neutralization [1]: 10.7 mg/L
- Neutralizing activity (%) Mean at 0.0228624 µg/ml [1]: 4.24%
- Neutralizing activity (%) Mean at 0.0685871 µg/ml [1]: 5.65%
- Neutralizing activity (%) Mean at 0.2057613 µg/ml [1]: 8.66%
- Neutralizing activity (%) Mean at 0.6172839 µg/ml [1]: 12.4%
- Neutralizing activity (%) Mean at 1.851852 µg/ml [1]: 16.1%
- Neutralizing activity (%) Mean at 5.555555 µg/ml [1]: 33.6%
- Neutralizing activity (%) Mean at 16.66667 µg/ml [1]: 64.9%
- Neutralizing activity (%) Mean at 50 µg/ml [1]: 90.2%

B18: P5A-2G7 (antibody, human IgG1, lambda, V domains shown)
VH: QVQLQESGPGLVKPSETLSLTCTVSGDSVSSGSYYWSWIRQPPGKGLEWIGYIYYSGSTNYNPSLKSRVTISVDTSKNQFSLKLSSVTAADTAVYYCARERCYYGSGRAPRCVWFDPWGQGTLVTVSS
VL: QSALTQPASVSGSPGQSITISCTGTSSDVGGYNYVSWYQQHPGKAPKLMIYDVSNRPSGVSNRFSGSKSGNTASLTISGLQAEDEADYYCSSYTSSSTLVVFGGGTKLTVLG
- IC50, pseudovirus neutralization [2]: 0.016 mg/L

B19: P5A-2G7 (antibody, human IgG1, lambda, V domains shown)
VH: B18 VH
VL: B18 VL
- Pseudovirus IC50 [4]: 0.0044 mg/L
- Pseudovirus IC80 [4]: 0.0287 mg/L

B20: P5A-1D10 (antibody, human IgG1, lambda, V domains shown)
VH: QVQLVESGGGLVKPGGSLRLSCAASQFTFSDYSMTWIRQAPGKGLEWVSYISQSGSTIYYADSVKGRFTISRDNAKNSLYLQMNSLRAEDTAVYYCARGVSPSYVWGSYRSLYHFDYWGQGTLVTVSS
VL: B18 VL with G66A, Y93F, S97T, L99V
- IC50, Pesudovirus neutralization [3]: 5.72 mg/L
- IC80, Pesudovirus neutralization [3]: 28.9 mg/L
- IC90, Pesudovirus neutralization [3]: 43.8 mg/L
